In US20130274185A1, “Pharmaceutical for Pseudo-Exercise Therapy” (THE UNIVERSITY OF TOKYO, priority 2010, published 2013):
Entries after “also recorded” stand apart in the source; their conditions may differ.

System: C2C12 myocytes
Assay: NAD+/NADH measurements in C2C12 myocytes
Assay type: cell-based, mouse
Method: NAD^+ and NADH nucleotides were directly measured by the method described in the following document (Nature, 458, 1056-1060 (2009)). Whole skeletal muscles or two 10 cm dishes of C2C12 myocytes were homogenized in 200 μl of an acid extraction buffer to measure the NAD^+ concentration, or 200 μl of alkali extraction to obtain the NADH concentration. Next, homogenates were neutralized and the concentration of nucleotides was measured fluorimetrically after an enzymatic cycling reaction using 5 μl of a sample. Values for both nucleotides were detected within the linear range. NAD^+/NADH ratios were calculated by comparing the ratios obtained from each animal or from parallel cell dishes in each experiment.

B1: adiponectin (protein, UniProt Q60994 1-247, looked up)
chain: MLLLQALLFLLILPSHAEDDVTTTEELAPALVPPPKGTCAGWMAGIPGHPGHNGTPGRDGRDGTPGEKGEKGDAGLLGPKGETGDVGMTGAEGPRGFPGTPGRKGEPGEAAYVYRSAFSVGLETRVTVPNVPIRFTKIFYNQQNHYDGSTGKFYCNIPGLYYFSYHITVYMKDVKVSLFKKDKAVLFTYDQYQEKNVDQASGSVLLHLEVGDQVWLQVYGDGDHNGLYADNVNDSTFTGFLLYHDTN
modifications: full-length
notes: adipokine, internal ligand of adiponectin receptor 1; recombinant murine full-length adiponectin
  NAD+ and NADH contents: increased
  NAD+/NADH ratio: increased a NAD^+/NADH ratio; also recorded: increased the NAD^+/NADH ratio
